From paper PMC5589570, “The antigenic identity of human class I MHC phosphopeptides is critically dependent upon phosphorylation status” (Oncotarget, 2017)
Square brackets hold non-standard residues; d marks the D form. Ends that are not written are not given here. pS = N[C@@H](COP(=O)(O)O)C(=O)O

Assays:
[1] = biological target: HLA-A2 (heavy chain with β2-microglobulin) (human | , Heavy-chain limits are not given; taken from the longest deposited entity of this paper (mature 1-276, A*02:01). Bound peptide not included: the test peptide is the partner, and the affinity-assay c); assay: radioligand binding; competitive peptide binding assay: test peptide (100,000-fold concentration range, triplicate) displaces a radiolabeled peptide from HLA-A2 (refolded with […]); MHC-peptide complexes captured on plates coated with antibody W6/32; IC50 taken as a reasonable approximation of the dissociation constant; details: both partners purified
[2] = biological target: HLA-A2 (heavy chain with β2-microglobulin) (human | ); assay: as above; details: both partners purified

B1: RQA_Vnp, unmodified peptide RQASIELPSMAV derived from Lymphocyte Specific Protein 1 (LSP-1) (peptide)
peptide: RQASIELPSMAV
notes: stretch of Lymphocyte Specific Protein 1 (LSP-1); source: synthetic peptide
In the case of B1, the Kd [1] is reported as 26 nM.

B2: RQInp, unmodified peptide RQISQDVKL derived from adenosine monophosphate deaminase 2 (AMPD2) (peptide)
peptide: RQISQDVKL
notes: stretch of adenosine monophosphate deaminase 2 (AMPD2); also called non-phosphorylated RQI; source: synthetic peptide
For B2, the Kd [1] was 1920 nM.

B3: RQIp, phosphopeptide RQIpSQDVKL derived from adenosine monophosphate deaminase 2 (AMPD2) (peptide)
peptide: RQI[pS]QDVKL
notes: stretch of adenosine monophosphate deaminase 2 (AMPD2); source: synthetic peptide
For B3, the Kd [2] was 25.5 nM.
